Assay results from patent US20140094592A1.

B1: d-lys6-GnRH-GMBS-plant-derived mature PAP (protein)
chain: VNTIIYNVGSTTISKYATFLNDLRNEAKDPSLKCYGIPMLPNTNTNPKYVLVELQGSNKKTITLMLRRNNLYVMGYSDPFETNKCRYHIFNDISGTERQDVETTLCPNANSRVSKNINFDSRYPTLESKAGVKSRSQVQLGIQILDSNIGKISGVMSFTEKTEAEFLLVAIQMVSEAARFKYIENQVKTNFNRAFNPNPKVLNLQETWGKISTAIHDAKNGVLPKPLELVDASGAKWIVLRVDEIKPDVALLNYVGGSCQTT
peptide: EHWSYKLRP
modifications: Hp-Glu at position 1 (blocked N-terminus); D-Lys at position 6, carrying the GMBS linker; C-terminal ethyl-amide (Et-NH2) replacing Gly 10; bound through the GMBS linker to d-lys6-GnRH; site of attachment not stated

Assays:
[1] = target: gonadotropin releasing hormone receptor; assay: competition with I125-d-Lys6-GnRH on pituitary membranes; competitor at 176.47 nM
[2] = target: gonadotropin releasing hormone receptor; assay: competition with I125-d-Lys6-GnRH on pituitary membranes; competitor at 1102.94 nM
[3] = target: gonadotropin releasing hormone receptor; assay: competition with I125-d-Lys6-GnRH on pituitary membranes; competitor at 441.18 nM
[4] = target: gonadotropin releasing hormone receptor; assay: competitive radio-immuno receptor binding assay, pituitary membranes, displacement of I125-d-Lys6-GnRH
[5] = target: gonadotropin releasing hormone receptor; assay: competition with I125-d-Lys6-GnRH on pituitary membranes; competitor at 70.59 nM
[6] = target: gonadotropin releasing hormone receptor; assay: competition with I125-d-Lys6-GnRH on pituitary membranes; competitor at 28.24 nM
[7] = target: gonadotropin releasing hormone receptor; assay: competition with I125-d-Lys6-GnRH on pituitary membranes; competitor at 29.09 nM
[8] = target: gonadotropin releasing hormone receptor; assay: competition with I125-d-Lys6-GnRH on pituitary membranes; competitor at 1136.36 nM
[9] = target: gonadotropin releasing hormone receptor; assay: competition with I125-d-Lys6-GnRH on pituitary membranes; competitor at 72.73 nM
[10] = target: gonadotropin releasing hormone receptor; assay: competition with I125-d-Lys6-GnRH on pituitary membranes; competitor at 181.82 nM
[11] = target: gonadotropin releasing hormone receptor; assay: competition with I125-d-Lys6-GnRH on pituitary membranes; competitor at 454.55 nM
[12] = target: gonadotropin releasing hormone receptor; assay: competition with I125-d-Lys6-GnRH on pituitary membranes; competitor at 200 nM
[13] = target: gonadotropin releasing hormone receptor; assay: competition with I125-d-Lys6-GnRH on pituitary membranes; competitor at 80 nM
[14] = target: gonadotropin releasing hormone receptor; assay: competition with I125-d-Lys6-GnRH on pituitary membranes; competitor at 500 nM
[15] = target: gonadotropin releasing hormone receptor; assay: competition with I125-d-Lys6-GnRH on pituitary membranes; competitor at 32 nM
[16] = target: gonadotropin releasing hormone receptor; assay: competition with I125-d-Lys6-GnRH on pituitary membranes; competitor at 1250 nM

| Molecule | read-out of the competitive receptor binding assay (unit not given) [1] | read-out of the competitive receptor binding assay (unit not given) [2] | read-out of the competitive receptor binding assay (unit not given) [3] | IC50 [4] [nM] | read-out of the competitive receptor binding assay (unit not given) [5] | read-out of the competitive receptor binding assay (unit not given) [6] | read-out of the competitive receptor binding assay (unit not given) [7] | read-out of the competitive receptor binding assay (unit not given) [8] | read-out of the competitive receptor binding assay (unit not given) [9] | read-out of the competitive receptor binding assay (unit not given) [10] | read-out of the competitive receptor binding assay (unit not given) [11] | read-out of the competitive receptor binding assay (unit not given) [12] | read-out of the competitive receptor binding assay (unit not given) [13] | read-out of the competitive receptor binding assay (unit not given) [14] | read-out of the competitive receptor binding assay (unit not given) [15] | read-out of the competitive receptor binding assay (unit not given) [16] |
| --- | --- | --- | --- | --- | --- | --- | --- | --- | --- | --- | --- | --- | --- | --- | --- | --- |
| d-lys6-GnRH-GMBS-rPAP (from UniProt P10297 23-285) | 49.4 | 9.24 | 34 | 70 to 200 | 78.2 | 75 | – | – | – | – | – | – | – | – | – | – |
| non-conjugated recombinant PAP (not bound to d-lys6-GnRH-GMBS) (from UniProt P10297 23-285) | – | – | – | – | – | – | 91.5 | 74.8 | 111 | 96.4 | 98.7 | – | – | – | – | – |
| B1 | – | – | – | 70 to 200 | – | – | – | – | – | – | – | 10.1 | 37.5 | 3.38 | 65.5 | 0 |
